“Also recorded” adds a separate entry of the source.
Tests used:
[1] = test system: NF1-null iNPC-LGGs; assay: PD0325901 treatment of Rag1-/- mice harboring NF1-null iNPC-LGGs; format: in vivo, mouse; conditions: 5 mg/kg/day intraperitoneal, 6 days a week, four weeks, from 1 mpi
Method: (§1) Twenty 4-week-old Rag1^−/− mice of both sexes harboring NF1-null iNPC-LGGs 1 month post-injection were intraperitoneally injected either with 10% DMSO in saline or with 5 mg/kg/day PD0325901 (Sigma-Aldrich), 6 days a week, for a total of four weeks. Treated mice were collected for histopathologic analysis. For in vitro experiments, iNPCs, iGRPs and iOPCs were treated with 10 nM PD0325901 for 24 h prior to immunocytochemical analysis.
Injected mice were transcardially perfused at 1, 3 or 6 months post-injection, initially with Ringer's solution, and then followed by ice-cold 4% paraformaldehyde. Whole mouse brains were harvested, post-fixed in 4% PFA and dehydrated in 70% ethanol. Dehydrated samples were then paraffin-embedded and serially sectioned (5 μm). Hematoxylin and eosin (H&E), as well as antibody immunohistochemical staining, were performed using the primary antibodies, Vectastain ABC kit (Vector Laboratories) and appropriate biotinylated secondary antibodies provided in TABLE 1.
Immunostaining was performed using the primary antibodies listed in TABLE 1 with appropriate Alexa Fluor-conjugated secondary antibodies. Bis-benzamide (Hoechst) was used as a nuclear counterstain.

[2] = test system: NF1-null iNPCs, iGRPs and iOPCs; assay: In vitro PD0325901 treatment of iNPCs, iGRPs and iOPCs (Ki67, cleaved caspase-3 immunocytochemistry); format: cell-based, human; conditions: 10 nM, 24 h
Method: as §1
(§2) Immunocytochemistry was performed on hiPSCs, iNPCs, iGRPs, iOPCs and astrocytes using the primary antibodies described in Additional file 1: Table 51. […] Appropriate secondary Alexa-Fluor-conjugated secondary antibodies diluted to 1:200 were employed and bis-benzamide (Hoechst) was used as a nuclear counterstain. Cells were mounted with Immu-mount (Fisher) and imaged on a Leica DMi1 fluorescent microscope using the Leica LAS X software, as per manufacturer's instructions.

[3] = test system: NF1-null iNPCs; assay: Direct cell count of NF1-null iNPCs after recombinant Cxcl10; format: cell-based, human; conditions: for decrease in cell number (direct cell count): NF1-null iNPCs
Method: RAS activity (ThermoFisher), cAMP (Fisher) detection, BrdU proliferation assays (Roche) and direct cell counting were performed according to the manufacturer's instructions. Cxcl10 (Ray Biotech) ELISA assays were performed according to the manufacturer's instructions. Each assay was performed using a minimum of three independently generated biological replicates.
(§3) Cxcl10 cDNA (Sino Biological) and lentiviral packaging vectors, or KIAA1549:BRAF adenoviral DNA, were transfected in HEK293T cells using Fugene HD (Promega) following the manufacturer's instructions. Viral supernatants were collected 48 h post-transfection, filtered, and used to directly infect iNPCs and iGRPs for 24 h. Cxcl10-GFP expression was confirmed by Western blotting as previously described. KIAA1549:BRAF-infected cells were puromycin-selected for 2 weeks prior to further expansion. Infected cells were used for intracranial injections in Rag1^−/− neonatal mice. For cell proliferation, cell death and differentiation analyses, iNPCs were treated with 25 or 100 pg/mL of murine recombinant Cxcl10 (PeproTech) for 24 h. Each experiment was performed a minimum of three times on independently generated samples.

[4] = test system: NF1-null iNPCs; assay: Cleaved caspase-3+ cells (programmed cell death) in NF1-null iNPCs after recombinant Cxcl10; format: cell-based, human; conditions: for increase in programmed cell death (cleaved caspase-3+ cells): NF1-null iNPCs
Method: as §2, §3

[5] = test system: NF1-null iNPCs; assay: GFAP+ astrocytic differentiation of NF1-null iNPCs after recombinant Cxcl10; format: cell-based, human; conditions: for increase in GFAP+ astrocytic differentiation: NF1-null iNPCs
Method: as §2, §3

[6] = relative to vehicle-treated LGGs
[7] = 25 pg/mL recombinant Cxcl10, 24 h
[8] = 100 pg/mL recombinant Cxcl10, 24 h
[9] = range over ectopic Cxcl10 expression or 25 or 100 pg/mL recombinant Cxcl10 (FIG. 19A)
[10] = range over ectopic Cxcl10 expression and recombinant Cxcl10 treatments (FIG. 19B)

| Molecule | presence of Ku80+ iNPC-LGGs after treatment [1] | tumor cell apoptosis (TUNEL+ cells) [1, 6] | tumor cell proliferation (Ki67+ cells) [1, 6] | apoptosis (cleaved caspase-3) [2] | cell proliferation (Ki67) [2] | decrease in cell number (direct cell count) [3, 7] [%] | decrease in cell number (direct cell count) [3, 8] [%] | NF1-null iNPC cell numbers decrease (direct cell count) [3, 9] | increase in programmed cell death (cleaved caspase-3+ cells) [4, 7] [fold] | increase in programmed cell death (cleaved caspase-3+ cells) [4, 8] [fold] | percent of cleaved caspase-3+ cells increases [4, 9] | increase in GFAP+ astrocytic differentiation [5, 7] [fold] | increase in GFAP+ astrocytic differentiation [5, 8] [fold] | differentiated GFAP+ cells undergoing apoptosis (cleaved caspase-3+) [5, 10] | share of total cells undergoing apoptosis (cleaved caspase-3+) that are GFAP+ [5, 10] |
| --- | --- | --- | --- | --- | --- | --- | --- | --- | --- | --- | --- | --- | --- | --- | --- |
| O=C(NOC[C@H](O)CO)c1ccc(F)c(F)c1Nc1ccc(I)cc1F [PD0325901] | still detectable | increased hiPSC-LGG cell apoptosis; also recorded: increased tumor cell apoptosis | reduced tumor cell proliferation; also recorded: decreased | increased hiPSC-LGG cell apoptosis; also recorded: increases apoptosis | reduced proliferation; also recorded: decreased cell proliferation; also recorded: decreases proliferation | – | – | – | – | – | – | – | – | – | – |
| recombinant murine Cxcl10 protein: murine recombinant Cxcl10 (PeproTech), a cytokine belonging to the CXC chemokine family (protein, UniProt P17515 22-98, looked up) C-X-C motif chemokine 10: IPLARTVRCNCIHIDDGPVRMRAIGKLEIIPASLSCPRVEIIATMKKNDEQRCLNPESKTIKNLMKAFSQKRSKRAP | – | – | – | – | – | 9 | 13 | 9-20% | 4.6 | 20.5 | 8.3-20.5 fold | 8.2 | 20.5 | 95-100% | 83.3-88.8% |

— patent US20230189773A1, “ENGINEERED CELLS, ANIMAL MODELS, AND USES THEREOF FOR MODELING LOW GRADE GLIOMA (LGG)” (Washington University, priority 2021, published 2023)
